The values below come from a protein production outcome set (Wang et al. 2014).
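Further: failed if final PepcDB status was selected cloned or expressed and not failed if soluble or beyond.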

This series in a line: label from the status in PepcDB records.
Consider “MEKASSPEKWLAKVSVTLTKAKPDEIWPLFTDFFNLHKWLPTLATCHGVHGNNGEQGCIRFCSGFSIGSNGVDSAARWSKEKLVAVNPVERVMRYEIVESNTGFESYVSTVKILPRGEDGCVIEWSFTVDPVRGLSLENLVKKYEKALEIITKNMEEDALRRRESSS”, for which the protein production result is on record as “failed”.

With “MEKEKKEGWAHPEAAEKYAQTADIIIPERKEILSIISKAAIDLGPMDPKIIDLGCGLGDVTAEILKLKLQADVLMIDFSDEMIRRSSERFRDNKNITVVKRDLNQGILDITEDRGFDAVVSCFSIHHVEFENRIKLYSDIRKLLKEQGLFINGDLFREDSPAIDQWEFNNRIFSLMIQLKEKLGQEWTFEELKLNRLENSQKMGDKPGTIWETFHDMKAAGFRHVDCLWKSRNLAIMAATKP”, the protein production entry is listed as “failed”.

On to “MEKFKYSLLVLFGACSYGILSTIFKLGFINGFSAHQLLGGQYVFGWIGLFLLVLFFSRHKVTKKQFFSLLTVGTTMSMTGIFYAISVEELPASIAVVLLFQFTWIGVIIEAIANRTFPSRDKIISILILFAGTLFAGGVFEGLGQSFSTKGIIFGLLAAVSFSFYVFASGRVATDVPPYTKSFLMTTSATLIVCLFFPPTFLTDGALQAGLWKYAFFLGLFGVVVPVICFSIGVPKVGTGLGTILGAAELPTAIIASITLVHEVVTFMQWIGIIFILVGIFIPQLLTARKERKQNRVHSA”, for which the protein production entry is “failed”.

Regarding “MEKFTLSRIINIIMFLYILSIYLFTFRDGLNSISNFLALTFIAAIWSNVLLTRKKIVFNKFLFIYFLFILVCFVSVFFAINQSIAVSKIKTIILIYFLMISLVNYIDTFEKLRSFLLSFVYSGFITGVYILASSDFSQVTRYGSELGNVNSIGMIIGISSIFCFYFIIEEKKYLLYTPIMLINIFVVFLTGSRKALLFVVLTIIAILLIQQKAGIKGKIKALIGILVTLVISLYVIFNVELLYTIIGVRMEHLFSYILGKGANEGSINIRANMIDMGLDWFQERPITGYGIDNFRSLYGIEAIGGEFTYSHNNLVELLVGIGIIGTFLFYLTHFIVLKGLYKESKKNQKSALCYSFIAIIGIYIILSVGLIYYYDKHISMILAIGSIIYKIGKPSGEELTQKTLE”, the protein production entry was “failed”.

For “MEKKPWEEDISIEEFKKSLNKDKITNLIIKRRWNKGKSTYHLSFNGDFEVVTKKPSTKYVTHKQLDQKLKEFKQDLMVELHDTFATKADLRDSEARINQKLEALVQVVLLHGEQINKLTQIVEKQGEQIRELQVEQKAQRQEFNARMDRLENLLVESIESTNKRFDSIEGRLDSMDSRLDSMENRLDSIEGRLDSVEGRLDSVEGRLDSMENRLDSMETRLDKIDPPK”, the protein production entry was “failed”.

In the case of “MEKKVGTDRVKRGMAQMQKGGVIMDVVNAEQAKIAEEAGAVAVMALERVPSDIRAAGGVARMADPRIVEEVMNAVSIPVMAKARIGHITEARVLEAMGVDYIDESEVLTPADDEFHLLKSDFTVPFVCGCRDIGEALRRIGEGAAMLRTKGEPGTGNIVEAVRHMRQVNGQIRQIASMTDDELMVAAKNFGAPYELVKEIKTLGKLPVVNFAAGGVATPADAALMMELGADGVFVGSGIFKSDNPAKFASAIVQATTYYTDYELIGKLSKELGSPMKGIEMSRLNPEDRMQDRSF”, the protein production entry was “failed”.

Take “MEKLNFGIPEWAFEFHGHKCPYMPMGYRAGSYALKIAGLEKEKDHRTYLLSEMSPEDMNGCFNDGAQAATGCTYGKGLFSLLGYGKLALILYRPGRKAIRVHVRNSFMDELSTRASDFFRYRKQGYEPSEIPAGAIDPVLEWISSLEDEEIFEYREIDGFTFEPVKKNGAKVRCDVCGEYTYEADAKLLNGKPVCKPDYYGKK”: the protein production result is “not failed”.

As to “MEKNVSQVTAQEETALKARGYNEDLLPSSPKQRTMGARNFFTLWMGSIHNIPNYAAVGGFIFLGLSPLQVMLAVVLSSFIVATFMNLNGVAGSKYGIPFAMHLQSTYGSLGAKLPGFLRGCVAAIAWFGLQTFTGSLALLIILGKFWPNFLEIGGSFQFFGLRLPELMAFTLFWLLNVAIGFGGSKILNRFTAILSPLIYVVIIGLTIWAIRAGGGLTPILSYQVSGAIRSVNPLVAYLIIFNSVVAVWSAPGASVADFTKNARSTRAQVVGQTTGLVVGYGIFAFSSVVILLGGSLYFGIQEWNILNIIDRLDNVAVVVLAMSVFLLTTISTNATGNIIPAGYQLAALFPKKMTYKKGVMIASVISFLIMPWKLMENADSIFIFLNAIGAVLGPVAGVMIANYYFVQKQQIDLNALYVDKHKKEEANPFYGLNKPAYVATILALVLSLSGQFIPQVKIIADISWFVGFATGFVLYLVLKKWTWDSKKVKETAYQEGK”, the protein production result was “failed”.

For the sequence “MEKPRSIEETPSSEPMEEEEDDDLELFGGYDSFRSYNSSVGSESSSYLEESSEAENEDREAGELPTSPLHLLSPGTPRSLDGSGSEPAVCEMCGIVGTREAFFSKTKRFCSVSCSRSYSSNSKKASILARLQGKPPTKKAKVLHKAAWSAKIGAFLHSQGTGQLADGTPTGQDALVLGFDWGKFLKDHSYKAAPVSCFKHVPLYDQWEDVMKGMKVEVLNSDAVLPSRVYWIASVIQTAGYRVLLRYEGFENDASHDFWCNLGTVDVHPIGWCAINSKILVPPRTIHAKFTDWKGYLMKRLVGSRTLPVDFHIKMVESMKYPFRQGMRLEVVDKSQVSRTRMAVVDTVIGGRLRLLYEDGDSDDDFWCHMWSPLIHPVGWSRRVGHGIKMSERRSDMAHHPTFRKIYCDAVPYLFKKVRAVYTEGGWFEEGMKLEAIDPLNLGNICVATVCKVLLDGYLMICVDGGPSTDGLDWFCYHASSHAIFPATFCQKNDIELTPPKGYEAQTFNWENYLEKTKSKAAPSRLFNMDCPNHGFKVGMKLEAVDLMEPRLICVATVKRVVHRLLSIHFDGWDSEYDQWVDCESPDIYPVGWCELTGYQLQPPVAAEPATPLKAKEATKKKKKQFGKKRKRIPPTKTRPLRQGSKKPLLEDDPQGARKISSEPVPGEIIAVRVKEEHLDVASPDKASSPELPVSVENIKQETDD”, the protein production entry is given as “failed”.

On to “MEKQEEEDVKRRQRQKAATSLGFLHWEELKNHGDLSKVALNIALTTLVDDASTGFCIMNLVNLIVLRESSQGYLLTYEGKLASLASATYVKAFISLWVLEDAERHAWSFRTFSLTFPLDDPILDTFLELTGVTEAGEFVYAPTTLQSPFHALYFDPQRNSFRRVIYEGLADDEFRRRNRLGYERHHILPNHIESLISL”, for which the protein production result is recorded as “failed”.

On to “MEKTLETVPLERKKREKEQFRKLFIGGLSFETTEESLRNYYEQWGKLTDCVVMRDPASKRSRGFGFVTFSSMAEVDAAMAARPHSIDGRVVEPKRAVAREESG”, for which the protein production result is “not failed”.

For the sequence “MEKVKKIVLIGASGFVGSALLNEALNRGFEVTAVVRHPEKIKIENEHLKVKKADVSSLDEVCEVCKGADAVISAFNPGWNNPDIYDETIKVYLTIIDGVKKAGVNRFLMVGGAGSLFIAPGLRLMDSGEVPENILPGVKALGEFYLNFLMKEKEIDWVFFSPAADMRPGVRTGRYRLGKDDMIVDIVGNSHISVEDYAAAMIDELEHPKHHQERFTIGYLEHHHHHH”, the protein production result is given as “failed”.

On to “MEKYLRSGTMFVVLAFILWGLTPLYYQYLSGGNLAQILIYRVFWSIPLLLAVRLLFRQRTRFHDAWKDKKSFFFCMIAGLLMIVSWSSFIYALTHHLVLDASLGYFINPLFVIALGCIFLKEKLSLFQAIAVFSGVCGLTFQIIMLRHFPALALTMGLSFALYGLARKFIHYDVMTSITIETLWALPVSLLIFLFSDSGPIISANTPFFLYVMTAPVTIIPLVLFAIALNHTSLIVTGLAQYIEPSLQFLLAIMIFGEHINYAELLCFCAVWFGLFLCISENLYSHYLRARLKPVFGRVQRFFR”, for which the protein production result is recorded as “failed”.

“MELDAFNKGAIPLINHPDCSALGYQVIQELGRNQEEGRITYLAHHHQSKQQVVIKEFSFAHTYTDWCDFTAYESEAKILQKLNHPRIPRYLDSFATQTGFYLVQEYKHALPLSSKRSFQPEEIKQIAVSVLEILVYLQQRIDPIIHRDIKPENILVDEQLNAYLVDFGLARVQDTKIALTSLLTGTPGFIPPEEQLGYSLSLASDLYSVGATLICLLANIRSVDIGKLIDSKGYFDFQKLDSQIDLRFRSWLMGMVEPKWQYRYTNAADALAALQPIQVTGNATAMEILATVIKLKYQTTVLGLAIIGVLAVAGATLILSQQGGAAQQLQEARK”: the protein production entry is reported as “failed”.

For the sequence “MELEQKLNLLNDLIVREIVNPLPPPYKVGVDLGTADIVLVVTDQEGIPVAGALKWASVVKDGLVVDYIGAIQIVRELKAKVERLLGSELFQAATAIPPGTVGRNAEACGHVVAGAGLELVTLVDEPVAAARALGINDGIVVDIGGGTTGIAVIEKGKITATFDEPTGGTHLSLVLAGSYKIPFEEAETIKKDFSRHREIMPVVRPVIEKMALIVKEVIKNYDQTLPVYVVGGTAYLTGFSEEFSRFLGKEVQVPIHPLLVTPLGIALFG”, the protein production result is listed as “not failed”.

Turning to “MELGFPLLWLSLVLPVLASLTIVALPPRTAYWLVAITLAIPGIVSSYYAFQGVLSEGIIDPVSLNLSNIGIGVVALAVDGFSYPFVLGVSVVTALVAVYGYKYMEVRLREMEGEGERAPGHAAYLILYSIFSSTMLGIAYSLNFLLFIIFLELSLLSSFLLIAFYGYGDRRRIALLYFVWTHIAGALALLGGLYYVIKTGTFDVATVEGGRIVYFSSPADRSVYAAIAGVSLLLGMLVKMAVFGVHMWLPYAHAEAPTPISALLSPNLIGLGGYGIARFAAAFYPWLLEDLKPLLVGLAFVTIVYGGLVALSQLDFKRLLAYSSISQMGYMLLALSTLHPLGFAAASLIFLGHAVGKAVLFMTAGVFITEAHGLRNIARMGGLARLYPLTAAAALIGFLHLAGIPPAFGFWGELYLTLSVLNYPGYSDAVSLGLLAIILIVAFTVTAAYSFITMRRIFFGRPRADMDAREEVDGFKSTVVLLAVLGVALFLLAGPMVTDLAASSLAMVEAFLS”, the protein production result is listed as “failed”.

For the sequence “MELGSVATFSLYPDLYARFRPSYPEELYDWLLPLCPGRQRAWDCATGSGQTAVRLGESFSRVDATDISSSQLSAAEPHTQVYYRECPAEVTPFDDDCFDLICVSQALHWFHLPSFWPEMQRVLKPGGIFAAWGYHHCVVSPEVDRACSVLWSIIEPFWSSRCQLLWDDFRGSGCPLPLLKAPSFTISSDWALDHFLGFLNTTSASKLCKQALGESILDDACQRITRAWGPRNQVRRVDLPLHLMVARKDDAGGYAG”, the protein production result is “failed”.

“MELGTPLLLTIAAAGIALLLVLIIRFKIQAFVALLAVSILVAVAAQIPLKDIFTVVTTGVGSTMGKVALLIALGAILGRMIEVSGGVQSLATHFTEKLGAKRVAIALTAVGFLVAIPVFFEVGVIVLVPIVYAFAKIANVHPIKFGLPMAGIMLSIHVAVPPHPGIVAGAGVFGADIGLITLISLIICIPLGFLSYWVASIMNRKDYELLPGVKQQVDEFGSDSLVHVGHDGPGARAIAPPRPGLIMFLIAAPIVQILLGTVGTLTLAKDNYWYGVAAFIGNPFFALLVAVALSFFLLAVRRNWSLKETGEIFEGALPPIASILMVVAAGGVFGEVLRASGIGAALSHTLDSLGLPVIVLGFIISLALRAAQGSATVAIVTTTGLLTSAVMEGGYTPAQIAVIVIAIGFGSLGLSHVTDAGFWTVIRYYGLTVSDGLKTWTVLTTILGLAGFALTYVAWILVGGLGH”: the protein production result is recorded as “failed”.

Consider “MELKDIMHILEDMKVGVFATLDEYGNPHARHAHITAANEEGIFFMTSPETHFYDQLMGDQRVAMTAISEEGYLIQVVRVEGTARPVENDYLKTVFADNPYYQHIYKDESSDTMQVFQIYAGHGFYHSLTQGHKYIFSIGQGEHSEVRAL”, for which the protein production result is reported as “not failed”.

“MELKDYYAILGVQPTDDLKTIKTAYRRLARKYHPDVSKENDAEAKFKDLAEAWEVLKDEQRRAEYDQLWQHRNDPGFGRQRQTHEQSYSQQDFDDIFSSMFGQQAHQRRRQHAARGHDLEIEVAVFLEETLAEQTRTISYNLPVYNVFGMIESETPKTLNVKIPAGVVDGQRIRLKGQGTPGENGGPNGDLWLVIHIAPHPLFDIVGHNLEIVLPLAPWEAALGAKVTVPTLKESILLTVPPGSQAGQRLRIKGKGLVSKTHTGDLFAVIKIVMPTKPDEKARELWQQLAAAEASFDPRKTWGKA”: the protein production entry is “not failed”.
